± gives the uncertainty stated by the source.
Test: self-splicing fitness, log relative to wild type (ln ratio); higher = more splicing; Tetrahymena group I intron in knt gene, E. coli kanamycin selection, DiMSum; sequences stand for … in CUCUCU…GGAGGGAAAAGUUAUCAGGCAUGCACCUGGUAGCUAGUCUUUAAACCAAUAGAUUGCAUCGGUUUAAAAGGCAAGACCGUCAAAUUGCGGGAAAGGGGUCAACAGCCGUUCAGUACCAAGUCUCAGGGGAAACUUUGAGAUGGCCUUGCAAAGGGUAUGGUAAUAAGCUGACGGACAUGGUCCUAACCACGCAGCCAAGUCCUAAGUCAACAGAUCUUCUGUUGAUAUGGAUGCAGUUCACAGACUAAAUGUCGGUCGGGGAAGAUGUAUUCUUCUCAUAAGAUAUAGUCGGACCUCUCCUUAAUGGGAGCUAGCGGAUGAAGUGAUGCAACACUGGAGCCGCUGGGAACUAAUUUGUAUGCGAAAGUAUAUUGAUUAGUUUUGGAGUACUCGUGGUCG
Summary of the method: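 A randomised library covering all eight P1ex-region intron nucleotides was built with the intron in the knt kanamycin-resistance gene on pET-22b(+) and held in E. coli BL21(DE3). Cells were grown overnight at 37°C or 30°C on LB agar, with or without 25 μg/mL kanamycin, plus 100 μg/mL carbenicillin, 50 μM IPTG and 0.2% rhamnose, and pooled colonies were amplicon-sequenced on an Illumina HiSeq 2500. DiMSum fitness is the error-weighted combination of wild-type-normalised replicate fold changes, kanamycin versus none.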

Sequence | self-splicing fitness (ln) (30 °C) | self-splicing fitness (ln) (37 °C)
CAAGAGCAAUAUUACGCAGA | -3.45 ± 0.19 | -2.12 ± 0.16
AAUUAGCAAUAUUACGGCCU | -0.324 ± 0.097 | 0.38 ± 0.16
UAUAAGCAAUAUUACGCGUA | -1.84 ± 0.2 | -0.627 ± 0.17
CAUGAGCAAUAUUACGUGUA | -3.33 ± 0.21 | -2.1 ± 0.15
ACCCAGCAAUAUUACGACCC | -1.06 ± 0.13 | 0.555 ± 0.18
UAUCAGCAAUAUUACGGUUC | -2.42 ± 0.14 | 0.223 ± 0.12
CAUGAGCAAUAUUACGACAA |  | -1.36 ± 0.33
CUCGAGCAAUAUUACGUCGU | -1.77 ± 0.26 | -1.88 ± 0.37
AAAGAGCAAUAUUACGGGCA | -2.45 ± 0.2 | -1.42 ± 0.24
GUAAAGCAAUAUUACGUGAA | -1.96 ± 0.1 | -1.39 ± 0.12
UGCCAGCAAUAUUACGGGCA | -3.85 ± 0.27 | -2.48 ± 0.24
GUAAAGCAAUAUUACGUUAA | -2 ± 0.093 | -1.69 ± 0.14
CGAAAGCAAUAUUACGCAUC |  | -2.75 ± 0.36
UAACAGCAAUAUUACGCUAG | -1.81 ± 0.071 | -0.992 ± 0.08
UGUAAGCAAUAUUACGGGGU | -3.75 ± 0.31 | -2.24 ± 0.28
CGAGAGCAAUAUUACGGUGU | -3.56 ± 0.21 | -2.73 ± 0.24
AAGAAGCAAUAUUACGGUAC | -2.37 ± 0.19 | -2.96 ± 0.33
AAUUAGCAAUAUUACGGGAC |  | -0.571 ± 0.23
UGGUAGCAAUAUUACGUACC | -2.93 ± 0.42 | -2.31 ± 0.49
AAUAAGCAAUAUUACGCGCU | -0.554 ± 0.17 | -0.562 ± 0.18

Sequence | self-splicing fitness (ln) (30 °C) | self-splicing fitness (ln) (37 °C)
UACGAGCAAUAUUACGUAUC | -2.79 ± 0.16 | -2.99 ± 0.27
AAGCAGCAAUAUUACGAGAC |  | -0.225 ± 0.15
UAAGAGCAAUAUUACGAGUA | -2.94 ± 0.19 | -2.66 ± 0.21
ACACAGCAAUAUUACGGCUG | -2.88 ± 0.12 | -1.42 ± 0.1
UAUCAGCAAUAUUACGUGAU | -3.01 ± 0.12 | -1.51 ± 0.11
UCUUAGCAAUAUUACGAAUC | -3.32 ± 0.5 | 
AUUUAGCAAUAUUACGGUCA | -0.961 ± 0.13 | -0.48 ± 0.12
UGUCAGCAAUAUUACGGCUC | -2.5 ± 0.15 | -0.587 ± 0.16
UCCCAGCAAUAUUACGCUCC | -1.78 ± 0.22 | -0.443 ± 0.3
GGCCAGCAAUAUUACGGGUC | -3.65 ± 0.26 | -2.41 ± 0.23
AUACAGCAAUAUUACGGUUA | -0.52 ± 0.069 | -0.372 ± 0.071
UAGAAGCAAUAUUACGCCAG | -1.3 ± 0.16 | -0.617 ± 0.21
UACAAGCAAUAUUACGCUAU | -3.38 ± 0.13 | -1.83 ± 0.11
GCGCAGCAAUAUUACGGACC | -1.03 ± 0.24 | 0.344 ± 0.38
GACCAGCAAUAUUACGGAUG | -0.62 ± 0.056 | 0.157 ± 0.077
GGCUAGCAAUAUUACGGCGG | -1.32 ± 0.13 | -0.684 ± 0.19
AGGAAGCAAUAUUACGUCUC | -2.91 ± 0.18 | -1.48 ± 0.21
UUAGAGCAAUAUUACGACUU | -1.32 ± 0.13 | -1.77 ± 0.19
GAACAGCAAUAUUACGCUCA | -1.23 ± 0.073 | 0.207 ± 0.1

Reference: the supplement of paper PMC7877785
